# What was measured:
# [1] = biological target: T cell receptor of the I-A^d restricted OVA specific T cell hybridoma 8DO51.15; test: flow cytometry; biotinylated MHC in liposomes, no peptide
# [2] = biological target: T cell receptor of the I-A^d restricted OVA specific T cell hybridoma 8DO51.15; test: flow cytometry; liposome:MHC:b-peptide with streptavidin-FITC on hybridoma cells, final MHC concentration 66 ug/ml
# [3] = biological target: T cell receptors of T cell populations derived from Iα52-supplemented FTOC and expanded with Hi15
# [4] = biological target: T cell receptors of CD4+ cells from BALB/c fetal thymic organ culture (FTOC); test: flow cytometry T cell capture; FTOC in the presence of 10^-2 mM Iα52; polyclonal thymocytes
# [5] = biological target: T cell receptors of CD4+ T cells from regional draining lymph nodes of BALB/c mice; test: flow cytometry T cell capture; lymph node cells of Iα52-immunized BALB/c mice; polyclonal
# [6] = biological target: T cell receptors of CD4+ T cells from regional draining lymph nodes of BALB/c mice; test: flow cytometry T cell capture; lymph node cells of IFA-only immunized BALB/c mice; polyclonal
# [7] = biological target: T cell receptors of CD4+ cells from BALB/c fetal thymic organ culture (FTOC); test: flow cytometry T cell capture; FTOC alone without added peptide; polyclonal thymocytes
# [8] = biological target: T cell receptors of T cell populations derived from Iα52-supplemented FTOC and expanded with Hi15; test: flow cytometry; cells from Iα52-supplemented FTOC after two weeks with 10 ug/ml Hi15; polyclonal
# [9] = biological target: T cell receptor of the I-A^d restricted OVA specific T cell hybridoma 8DO51.15; test: flow cytometry; correct restriction element, irrelevant peptide, on 8D051.15 cells
binder,measurement,setting,value
"biotinylated I-A^d in liposomes without peptide (protein, mouse) MHC II alpha: EDDIEADHVGFYGTTVYQSPGDIGQYTHEFDGDELFYVDLDKKKTVWRLPEFGQLILFEPQGGLQNIAAEKHNLGILTKRSNFTPATNEAPQATVFPKSPVLLGQPNTLICFVDNIFPPVINITWLRNSKSVTDGVYETSFLVNRDHSFHKLSYLTFIPSDDDIYDCKVEHWGLEEPVLKHWEPEIPAPMSELTE MHC II beta: GNSERHFVVQFKGECYYTNGTQRIRLVTRYIYNREEYVRYDSDVGEYRAVTELGRPDAEYWNSQPEILERTRAEVDTACRHNYEGPETSTSLRRLEQPNVAISLSRTEALNHHNTLVCSVTDFYPAKIKVRWFRNGQEETVGVSSTQLIRNGDWTFQVLVMLEMTPHQGEVYTCHVEHPSLKSPITVEWRAQSESARSK",% of cells bound,[1],6.9%
"liposome:I-A^d:biotinylated OVA^323-336 peptide complex (peptide-MHC, mouse) MHC II alpha: EDDIEADHVGFYGTTVYQSPGDIGQYTHEFDGDELFYVDLDKKKTVWRLPEFGQLILFEPQGGLQNIAAEKHNLGILTKRSNFTPATNEAPQATVFPKSPVLLGQPNTLICFVDNIFPPVINITWLRNSKSVTDGVYETSFLVNRDHSFHKLSYLTFIPSDDDIYDCKVEHWGLEEPVLKHWEPEIPAPMSELTE MHC II beta: GNSERHFVVQFKGECYYTNGTQRIRLVTRYIYNREEYVRYDSDVGEYRAVTELGRPDAEYWNSQPEILERTRAEVDTACRHNYEGPETSTSLRRLEQPNVAISLSRTEALNHHNTLVCSVTDFYPAKIKVRWFRNGQEETVGVSSTQLIRNGDWTFQVLVMLEMTPHQGEVYTCHVEHPSLKSPITVEWRAQSESARSK peptide: ISQAVHAAHAEINE",% of cells stained positive,[2],87.2%
"liposome:I-A^d:biotinylated Iα52 peptide complex (peptide-MHC, mouse) MHC II alpha: EDDIEADHVGFYGTTVYQSPGDIGQYTHEFDGDELFYVDLDKKKTVWRLPEFGQLILFEPQGGLQNIAAEKHNLGILTKRSNFTPATNEAPQATVFPKSPVLLGQPNTLICFVDNIFPPVINITWLRNSKSVTDGVYETSFLVNRDHSFHKLSYLTFIPSDDDIYDCKVEHWGLEEPVLKHWEPEIPAPMSELTE MHC II beta: GNSERHFVVQFKGECYYTNGTQRIRLVTRYIYNREEYVRYDSDVGEYRAVTELGRPDAEYWNSQPEILERTRAEVDTACRHNYEGPETSTSLRRLEQPNVAISLSRTEALNHHNTLVCSVTDFYPAKIKVRWFRNGQEETVGVSSTQLIRNGDWTFQVLVMLEMTPHQGEVYTCHVEHPSLKSPITVEWRAQSESARSK peptide: ASFEAQGALANIAVDKA",% of CD4+ cells positive for both peptides,[3],31.1%
same,% of CD4+ cells bound,[4],50.9%
same,% of CD4+ T cells specific,[5],5.4%
same,% of CD4+ T cells specific,[6],0.7%
same,% of CD4+ cells bound,[7],20.7%
same,% of cells bound,[8],52.8%
liposome:I-A^d:biotinylated Hi15 peptide complex (peptide-MHC) MHC II alpha: EDDIEADHVGFYGTTVYQSPGDIGQYTHEFDGDELFYVDLDKKKTVWRLPEFGQLILFEPQGGLQNIAAEKHNLGILTKRSNFTPATNEAPQATVFPKSPVLLGQPNTLICFVDNIFPPVINITWLRNSKSVTDGVYETSFLVNRDHSFHKLSYLTFIPSDDDIYDCKVEHWGLEEPVLKHWEPEIPAPMSELTE MHC II beta: GNSERHFVVQFKGECYYTNGTQRIRLVTRYIYNREEYVRYDSDVGEYRAVTELGRPDAEYWNSQPEILERTRAEVDTACRHNYEGPETSTSLRRLEQPNVAISLSRTEALNHHNTLVCSVTDFYPAKIKVRWFRNGQEETVGVSSTQLIRNGDWTFQVLVMLEMTPHQGEVYTCHVEHPSLKSPITVEWRAQSESARSK peptide: TSFPMRGDLAKREPDK,% of CD4+ cells positive for both peptides,[3],31.1%
same,% of cells positive,[3],52%
same,% positive cells,[9],8.7%

# Reference: patent US20050208120A1
